{
  "source": "patent US20190359693A1",
  "key": {"[1]": {"biological_target": "hemagglutinin (HA) of influenza A/AnnArbor/23/57 (H2N2) (influenza A virus)", "test": "cell-based or functional assay"}, "[2]": {"biological_target": "hemagglutinin (HA) of influenza A/California/07/09 (H1N1) (influenza A virus)", "test": "cell-based or functional assay"}, "[3]": {"biological_target": "hemagglutinin (HA) of influenza A/Chick/Germany/N/49 (H10N7) (influenza A virus)", "test": "cell-based or functional assay"}, "[4]": {"biological_target": "hemagglutinin (HA) of influenza A/Christchurch/16/10 (H1N1) (influenza A virus)", "test": "cell-based or functional assay"}, "[5]": {"biological_target": "hemagglutinin (HA) of influenza A/Ck/HK/SSP176/09 (H9N2) (influenza A virus)", "test": "cell-based or functional assay"}, "[6]": {"biological_target": "hemagglutinin (HA) of influenza A/Env/HK/MPU3156/05 (H1N2) (influenza A virus)", "test": "cell-based or functional assay"}, "[7]": {"biological_target": "hemagglutinin (HA) of influenza A/Env/HK/MPU3156/05 (H2N2) (influenza A virus)", "test": "cell-based or functional assay"}, "[8]": {"biological_target": "hemagglutinin (HA) of influenza A/Env/MPK659/09 (H12N5) (influenza A virus)", "test": "cell-based or functional assay"}, "[9]": {"biological_target": "hemagglutinin (HA) of influenza A/Eurasian Wigeon/MPF461/07 (H5N2) (influenza A virus)", "test": "cell-based or functional assay"}, "[10]": {"biological_target": "hemagglutinin (HA) of influenza A/Eurasian Wigeon/MPH571/08 (H8N4) (influenza A virus)", "test": "cell-based or functional assay"}, "[11]": {"biological_target": "hemagglutinin (HA) of influenza A/Fukui/45/04 (H3N2) (influenza A virus)", "test": "cell-based or functional assay"}, "[12]": {"biological_target": "hemagglutinin (HA) of influenza A/Great Cormorant/MP2934/04 (H9N2) (influenza A virus)", "test": "cell-based or functional assay"}, "[13]": {"biological_target": "hemagglutinin (HA) of influenza A/Great Cormorant/MPB1683/06 (H4N6) (influenza A virus)", "test": "cell-based or functional assay"}, "[14]": {"biological_target": "hemagglutinin (HA) of influenza A/Guiyang/1/57 (H2N2) (influenza A virus)", "test": "cell-based or functional assay"}, "[15]": {"biological_target": "hemagglutinin (HA) of influenza A/HK/466419/09 (H9N2) (influenza A virus)", "test": "cell-based or functional assay"}, "[16]": {"biological_target": "hemagglutinin (HA) of influenza A/HK/54/98 (H1N1) (influenza A virus)", "test": "cell-based or functional assay"}, "[17]": {"biological_target": "hemagglutinin (HA) of influenza A/Hiroshima/52/05 (H3N2) (influenza A virus)", "test": "cell-based or functional assay"}, "[18]": {"biological_target": "hemagglutinin (HA) of influenza A/Indonesia/5/05 (H5N1) (influenza A virus)", "test": "cell-based or functional assay"}, "[19]": {"biological_target": "hemagglutinin (HA) of influenza A/Jiangxi/346/2013 (H10N8) (influenza A virus)", "test": "cell-based or functional assay"}, "[20]": {"biological_target": "hemagglutinin (HA) of influenza A/Johannesburg/33/94 (H3N2) (influenza A virus)", "test": "cell-based or functional assay"}, "[21]": {"biological_target": "hemagglutinin (HA) of influenza A/NIBRG/60 (A/mallard/Netherlands/12/00) (H7N3) (influenza A virus)", "test": "cell-based or functional assay"}, "[22]": {"biological_target": "hemagglutinin (HA) of influenza A/New Caledonia/20/99 (H1N1) (influenza A virus)", "test": "cell-based or functional assay"}, "[23]": {"biological_target": "hemagglutinin (HA) of influenza A/Northern Pintail/MPB1368/06 (H4N1) (influenza A virus)", "test": "cell-based or functional assay"}, "[24]": {"biological_target": "hemagglutinin (HA) of influenza A/Northern Shoveler/MPF518/08 (H7N7) (influenza A virus)", "test": "cell-based or functional assay"}, "[25]": {"biological_target": "hemagglutinin (HA) of influenza A/PR8 H5N1 HK97 (H5N1) (influenza A virus)", "test": "cell-based or functional assay"}, "[26]": {"biological_target": "hemagglutinin (HA) of influenza A/PR8 H7N7-NY (H7N7) (influenza A virus)", "test": "cell-based or functional assay"}, "[27]": {"biological_target": "hemagglutinin (HA) of influenza A/Perth/16/09 (H3N2) (influenza A virus)", "test": "cell-based or functional assay"}, "[28]": {"biological_target": "hemagglutinin (HA) of influenza A/Shanghai/2/13 (H7N9) (influenza A virus)", "test": "cell-based or functional assay"}, "[29]": {"biological_target": "hemagglutinin (HA) of influenza A/Solomon Islands/3/2006 (IVR 145) (H1N1) (influenza A virus)", "test": "cell-based or functional assay"}, "[30]": {"biological_target": "hemagglutinin (HA) of influenza A/Taiwan/2/2013 (H6N1) (influenza A virus)", "test": "cell-based or functional assay"}, "[31]": {"biological_target": "hemagglutinin (HA) of influenza A/WSN/33 (H1N1) (influenza A virus) (UniProt P03454)", "test": "cell-based or functional assay"}, "[32]": {"biological_target": "hemagglutinin (HA) of influenza A/Wisconsin/67/05 (H3N2) (influenza A virus)", "test": "cell-based or functional assay"}, "[33]": {"biological_target": "hemagglutinin (HA) of influenza B/Florida/04/06 (Yamagata) (influenza B virus)", "test": "cell-based or functional assay"}, "[34]": {"biological_target": "hemagglutinin (HA) of influenza B/Harbin/7/94 (Yamagata) (influenza B virus)", "test": "cell-based or functional assay"}, "[35]": {"biological_target": "hemagglutinin (HA) of influenza B/Malaysia/2506/04 (Victoria) (influenza B virus)", "test": "cell-based or functional assay"}, "[36]": {"biological_target": "hemagglutinin (HA) of influenza B/Massachusetts/02/12 (Yamagata) (influenza B virus)", "test": "cell-based or functional assay"}, "[37]": {"biological_target": "recombinant HA of B/Brisbane/60/08 (Victoria) (influenza B virus)", "test": "biolayer interferometry (Octet), steady-state fit, geometric mean, pH 7.4"}, "[38]": {"biological_target": "recombinant HA of H1N1 A/Brisbane/59/07 (influenza A virus)", "test": "biolayer interferometry (Octet), steady-state fit, geometric mean, pH 7.4"}, "[39]": {"biological_target": "recombinant HA of H3N2 A/HK/1/68-MA (influenza A virus)", "test": "biolayer interferometry (Octet), steady-state fit, geometric mean, pH 7.4"}, "[40]": {"biological_target": "recombinant HA of H3N2 A/Wisconsin/67/05 (influenza A virus)", "test": "biolayer interferometry (Octet), steady-state fit, geometric mean, pH 7.4"}, "[41]": {"biological_target": "recombinant HA of H7N3 A/NIBRG/60 (A/mallard/NL/12/00) (influenza A virus)", "test": "biolayer interferometry (Octet), steady-state fit, geometric mean, pH 7.4"}, "[42]": {"biological_target": "recombinant HA of H7N9 A/Hangzhou/1/2013 (influenza A virus)", "test": "biolayer interferometry (Octet), steady-state fit, geometric mean, pH 7.4"}},
  "data": [
    {"substance": "MD3606 (Fc fusion)", "values": [
      {"measurement": "Average neutralization titers", "setting": "[1]", "value": 13.2, "unit": "nM"},
      {"measurement": "Average neutralization titers", "setting": "[2]", "value": 1.8, "unit": "nM"},
      {"measurement": "Average neutralization titers", "setting": "[3]", "value": 10.2, "unit": "nM"},
      {"measurement": "Average neutralization titers", "setting": "[4]", "value": 1, "unit": "nM"},
      {"measurement": "Average neutralization titers", "setting": "[5]", "value": 9, "unit": "nM"},
      {"measurement": "Average neutralization titers", "setting": "[6]", "value": 2.6, "unit": "nM"},
      {"measurement": "Average neutralization titers", "setting": "[7]", "value": 9.3, "unit": "nM"},
      {"measurement": "Average neutralization titers", "setting": "[8]", "value": "> 1000", "unit": "nM"},
      {"measurement": "Average neutralization titers", "setting": "[9]", "value": 9.2, "unit": "nM"},
      {"measurement": "Average neutralization titers", "setting": "[10]", "value": 3.7, "unit": "nM"},
      {"measurement": "Average neutralization titers", "setting": "[11]", "value": 40.5, "unit": "nM"},
      {"measurement": "Average neutralization titers", "setting": "[12]", "value": 9.7, "unit": "nM"},
      {"measurement": "Average neutralization titers", "setting": "[13]", "value": 3.1, "unit": "nM"},
      {"measurement": "Average neutralization titers", "setting": "[14]", "value": 26.7, "unit": "nM"},
      {"measurement": "Average neutralization titers", "setting": "[15]", "value": 5.3, "unit": "nM"},
      {"measurement": "Average neutralization titers", "setting": "[16]", "value": 5, "unit": "nM"},
      {"measurement": "Average neutralization titers", "setting": "[17]", "value": 6.5, "unit": "nM"},
      {"measurement": "Average neutralization titers", "setting": "[18]", "value": 11.5, "unit": "nM"},
      {"measurement": "Average neutralization titers", "setting": "[19]", "value": 18.3, "unit": "nM"},
      {"measurement": "Average neutralization titers", "setting": "[20]", "value": 8.1, "unit": "nM"},
      {"measurement": "Average neutralization titers", "setting": "[21]", "value": 12.9, "unit": "nM"},
      {"measurement": "Average neutralization titers", "setting": "[22]", "value": 2.6, "unit": "nM"},
      {"measurement": "Average neutralization titers", "setting": "[23]", "value": 2.6, "unit": "nM"},
      {"measurement": "Average neutralization titers", "setting": "[24]", "value": 18.4, "unit": "nM"},
      {"measurement": "Average neutralization titers", "setting": "[25]", "value": 6.5, "unit": "nM"},
      {"measurement": "Average neutralization titers", "setting": "[26]", "value": 8.1, "unit": "nM"},
      {"measurement": "Average neutralization titers", "setting": "[27]", "value": 5.7, "unit": "nM"},
      {"measurement": "Average neutralization titers", "setting": "[28]", "value": 22.8, "unit": "nM"},
      {"measurement": "Average neutralization titers", "setting": "[29]", "value": 1.6, "unit": "nM"},
      {"measurement": "Average neutralization titers", "setting": "[30]", "value": 14.5, "unit": "nM"},
      {"measurement": "Average neutralization titers", "setting": "[31]", "value": 2, "unit": "nM"},
      {"measurement": "ADCC induction (EC50 grade, FcγRIIIa reporter bioassay)", "setting": "[32]", "value": "< 0.1", "unit": "µg/mL"},
      {"measurement": "Average neutralization titers", "setting": "[32]", "value": 6.5, "unit": "nM"},
      {"measurement": "ADCC induction (EC50 grade, FcγRIIIa reporter bioassay)", "setting": "[33]", "value": "< 0.1", "unit": "µg/mL"},
      {"measurement": "Average neutralization titers", "setting": "[33]", "value": 1, "unit": "nM"},
      {"measurement": "Average neutralization titers", "setting": "[34]", "value": 1, "unit": "nM"},
      {"measurement": "Average neutralization titers", "setting": "[35]", "value": 2.6, "unit": "nM"},
      {"measurement": "Average neutralization titers", "setting": "[36]", "value": 1, "unit": "nM"},
      {"measurement": "Kd", "setting": "[37]", "value": 3.8, "unit": "nM"},
      {"measurement": "Kd", "setting": "[38]", "value": 2.2, "unit": "nM"},
      {"measurement": "Kd", "setting": "[39]", "value": 1.4, "unit": "nM"},
      {"measurement": "Kd", "setting": "[40]", "value": 0.6, "unit": "nM"},
      {"measurement": "Kd", "setting": "[41]", "value": 1.1, "unit": "nM"},
      {"measurement": "Kd", "setting": "[42]", "value": 1.2, "unit": "nM"}
    ]}
  ]
}
